Consider 10 molecules from patent US20200317768A1 (published 2020).

Test [1] concerns the target T1, human FcγRIIIaV extracellular domain, C-terminal His-tag (human, UniProt P08637 17-208).
T1 construct: also called FcgRIIIaV; not shown: His-tag added to C-terminus
Description: SPR (Biacore), KD of SG1 / KD of variant. (In general: SPR reads the build-up and loss of mass on a sensor chip optically.)

Test [2] addresses T2, human FcγRIIb extracellular domain, C-terminal His-tag (human, UniProt P31994 43-217).
T2 construct: also called FcgRIIb (human); not shown: His-tag added to C-terminus
T2 sequence: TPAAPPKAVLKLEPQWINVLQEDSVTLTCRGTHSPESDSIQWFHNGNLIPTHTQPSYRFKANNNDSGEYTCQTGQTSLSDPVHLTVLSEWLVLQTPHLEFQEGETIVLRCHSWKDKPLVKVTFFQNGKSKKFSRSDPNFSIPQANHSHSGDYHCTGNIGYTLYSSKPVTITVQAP
Description: SPR (Biacore), KD of SG1 / KD of variant.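 Further: relative to parent M103205H795-SG1 carrying the SG1 human heavy chain constant region.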

The target of test [3] is T3, human FcγRIIaH extracellular domain, C-terminal His-tag (human, UniProt P12318 34-217).
T3 construct: also called human FcγRIIa (type H); FcgRIIaH; not shown: His-tag added to C-terminus
T3 sequence: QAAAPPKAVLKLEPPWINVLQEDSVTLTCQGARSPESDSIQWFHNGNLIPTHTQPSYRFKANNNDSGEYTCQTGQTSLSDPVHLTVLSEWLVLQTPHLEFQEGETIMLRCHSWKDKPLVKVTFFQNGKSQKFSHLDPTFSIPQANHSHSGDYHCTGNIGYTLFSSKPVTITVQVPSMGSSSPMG
Put plainly: SPR (Biacore), KD of SG1 / KD of variant.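 Further: relative to parent M103205H795-SG1 carrying the SG1 human heavy chain constant region.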

Test [4] addresses T4, cynomolgus monkey FcγRIIIaS extracellular domain, C-terminal His-tag (cynomolgus monkey, UniProt A3RFZ7 21-206 (rhesus entry)).
T4 construct: also called cyno FcγRIIIaS; cynoFcγRIIIaS; not shown: His-tag added to C-terminus
Description: SPR (Biacore), KD of SG1 / KD of variant.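 Further: relative to parent M103205H795-SG1 carrying the SG1 human heavy chain constant region.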

For test [5], the target named is T5, cynomolgus monkey FcγRIIb extracellular domain, C-terminal His-tag (cynomolgus monkey).
T5 construct: also called cyno FcγRIIb; cynoFcγRIIb; not shown: His-tag added to C-terminus
T5 chain: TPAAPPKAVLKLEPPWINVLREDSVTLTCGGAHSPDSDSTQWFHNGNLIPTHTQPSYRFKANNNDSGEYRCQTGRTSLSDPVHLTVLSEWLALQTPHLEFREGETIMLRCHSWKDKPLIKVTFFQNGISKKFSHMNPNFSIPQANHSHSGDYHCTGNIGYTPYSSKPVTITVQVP
Description: SPR (Biacore), KD of SG1 / KD of variant.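 Further: relative to parent M103205H795-SG1 carrying the SG1 human heavy chain constant region.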

Test [6] addresses T6, cynomolgus monkey FcγRIIa2 extracellular domain, C-terminal His-tag (cynomolgus monkey).
T6 construct: also called cyno FcγRIIa2; cynoFcgRIIa2; not shown: His-tag added to C-terminus
T6 chain: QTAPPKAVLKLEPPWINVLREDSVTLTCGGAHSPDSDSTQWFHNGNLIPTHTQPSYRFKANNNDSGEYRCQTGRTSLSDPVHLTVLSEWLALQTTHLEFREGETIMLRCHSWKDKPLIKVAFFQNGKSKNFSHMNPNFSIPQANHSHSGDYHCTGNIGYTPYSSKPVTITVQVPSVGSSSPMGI
Put plainly: SPR (Biacore), KD of SG1 / KD of variant.

Test [7] has as its target T7, cynomolgus monkey FcγRIIa3 extracellular domain, C-terminal His-tag (cynomolgus monkey).
T7 construct: also called cyno FcγRIIa3; cynoFcgRIIa3; not shown: His-tag added to C-terminus
T7 chain: T6 chain with K127I, N130K, H133P, Q142R
Put plainly: SPR (Biacore), KD of SG1 / KD of variant.

Test [8] has as its target T8, human FcγRIIaR extracellular domain, C-terminal His-tag (human, UniProt P12318 34-217).
T8 construct: also called human FcγRIIa (type R); FcgRIIaR; not shown: His-tag added to C-terminus
T8 chain: T3 sequence with H134R
Description: SPR (Biacore), KD of SG1 / KD of variant.

Test [9] deals with T3, human FcγRIIaH extracellular domain, …. Put plainly: SPR (Biacore), antibody captured, FcgR analyte, 25 C.

Where a chain is given by its changes, count along the chain named.

T4 sequence (A3RFZ7 21-206): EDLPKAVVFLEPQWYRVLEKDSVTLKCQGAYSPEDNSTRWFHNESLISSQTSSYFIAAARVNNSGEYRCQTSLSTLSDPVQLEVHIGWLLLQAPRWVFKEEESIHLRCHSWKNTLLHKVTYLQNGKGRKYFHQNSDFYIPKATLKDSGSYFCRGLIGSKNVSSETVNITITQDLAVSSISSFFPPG
T1 sequence (P08637 17-208 F176V): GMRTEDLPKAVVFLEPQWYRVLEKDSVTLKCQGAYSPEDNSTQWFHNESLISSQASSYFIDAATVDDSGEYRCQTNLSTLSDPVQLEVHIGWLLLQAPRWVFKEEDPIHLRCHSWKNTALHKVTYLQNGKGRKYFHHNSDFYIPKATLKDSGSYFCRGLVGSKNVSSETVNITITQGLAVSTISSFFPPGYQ

B1: M103205H795-MY273/M103202L889-SK1 (antibody, human IgG1, kappa)
heavy: QVTLKESGPVLVKPTETLTLTCTVSGIDLSHDDISWVRQAPGKGLEWVGIISYAGSTYYASWAKGRLTISKDTSKNQVVLTMTNMDPVDTATYYCARGVPAYSHGGDLWGQGTLVTVSSASTKGPSVFPLAPSSKSTSGGTAALGCLVKDYFPEPVTVSWNSGALTSGVHTFPAVLQSSGLYSLSSVVTVPSSSLGTQTYICNVNHKPSNTKVDKKVEPKSCDKTHTCPPCPAPELLLGPSVFLFPPKPKDTLMISRTPEVTCVVVDVSDEDPEVKFNWYVDGVEVHNAKTKPREEQYNSTYRVVSVLTVLHQDWLNGKEYKCKVSNKALPKPIEKTISKAKGQPREPQVYTLPPSREEMTKNQVSLTCLVKGFYPSDIAVEWESNGQPENNYKTTPKVLDSDGSFFLYSKLTVDKSRWQQGNVFSCSVMHEALHNHYTQKSLSLSP
light: DIVMTQSPATLSLSPGERATLSCTSSQSVYHANWLSWFQQKPGQPPKLLIYWASTLAYGVPSRFSGSGSGTDFTLTISSLQPEDAATYYCAGGYGGGRYAFGQGTKVEIKRTVAAPSVFIFPPSDEQLKSGTASVVCLLNNFYPREAKVQWKVDNALQSGNSQESVTEQDSKDSTYSLSSTLTLSKADYEKHKVYACEVTHQGLSSPVTKSFNRGEC
Turning to B1, the “KD fold (SG1 = 1)” value in [1] is 0.08 fold; in [2] it was 0.9 fold; in test [3], 1.4 fold; in test [4] it was 0.21 fold; in test [5] it was 1.5 fold; in [6] it was 1.5 fold. The “KD fold (SG1 = 1)” value is 1.5 fold in test [7] and 1.1 fold in [8]. In addition, the Kd (in general, the equilibrium constant for the complex coming apart) in test [9] stood at 510 nM.

B2: M103205H795-MY278/M103202L889-SK1 (antibody, human IgG1, kappa)
heavy: B1 heavy with L238M, Q297L, K398P
light: B1 light
Consider B2, for which the “KD fold (SG1 = 1)” value in test [1] stood at 0.24 fold; in [2], 1 fold; in [3], 1.3 fold; in test [4] it was 0.49 fold; in test [5], 1.6 fold; in [6], 1.4 fold. Besides, the “KD fold (SG1 = 1)” value in test [7] is 1.7 fold; in [8], 0.7 fold. Besides, binding in test [9] was put at a Kd of 530 nM.

B3: M103205H795-MY276/M103202L889-SK1 (antibody, human IgG1, kappa)
heavy: B1 heavy with L238I
light: B1 light
Take B3: the “KD fold (SG1 = 1)” value is 0.14 fold in test [1]; 1.9 fold in test [2]; 13 fold in test [3]; 0.3 fold in test [4]; 5.3 fold in test [5]; 4.6 fold in test [6]. The “KD fold (SG1 = 1)” value in test [7] came to 3.8 fold; in [8] it was 4.4 fold. Besides, in [9], binding was characterised by a dissociation constant (Kd) of 53 nM.

B4: M103205H795-MY279/M103202L889-SK1 (antibody, human IgG1, kappa)
heavy: B1 heavy with L238H, Q297L, K398P
light: B1 light
In the case of B4, the “KD fold (SG1 = 1)” value in test [1] turned out to be 0.12 fold; in test [2], 1 fold; in test [3], 4.9 fold; in test [4], 0.15 fold; in test [5], 2 fold; in test [6], 1.5 fold. Also, the figures for the “KD fold (SG1 = 1)” value in [7] and in test [8] were 3.6 fold and 1.5 fold, respectively. In test [9], this molecule registered a dissociation constant (Kd) of 140 nM.

B5: M103205H795-MY274/M103202L889-SK1 (antibody, human IgG1, kappa)
heavy: B1 heavy with L238T
light: B1 light
Turning to B5, the “KD fold (SG1 = 1)” value in test [1] came out at 0.33 fold; in test [2], 4.8 fold; in test [3] it was 8.3 fold; in test [4], 0.58 fold; in [5] it was 7.8 fold; in test [6], 6.4 fold. Besides, the figures for the “KD fold (SG1 = 1)” value in test [7] and in test [8] were 8.5 fold and 6.5 fold, respectively. Besides, in test [9], the dissociation constant (Kd) is 8100 nM.

B6: M103205H795-MY281/M103202L889-SK1 (antibody, human IgG1, kappa)
heavy: B1 heavy with L238Q, Q297L, K398P
light: B1 light
With B6, the “KD fold (SG1 = 1)” value in test [1] worked out at 0.39 fold; in test [2], 2.6 fold; in [3], 3.3 fold; in test [4] it was 0.49 fold; in test [5], 2.9 fold; in [6], 2 fold. Also, the “KD fold (SG1 = 1)” value worked out at 1.9 fold in test [7] and 2.8 fold in [8]. For the same molecule, the Kd in test [9] was 130 nM.

B7: M103205H795-MY308/M103202L889-SK1 (antibody, human IgG1, kappa)
heavy: B1 heavy with L238T, D270E, K398P
light: B1 light
For the molecule B7, the “KD fold (SG1 = 1)” value is 0.03 fold in test [1]; 1.1 fold in test [2]; 1.5 fold in [3]; 0.16 fold in test [4]; 1.2 fold in [5]; 1.9 fold in test [6]. Moreover, the “KD fold (SG1 = 1)” value in [7] and in test [8] was 1.3 fold in each case. Further, the Kd in [9] was 450 nM.

B8: M103205H795-MY292/M103202L889-SK1 (antibody, human IgG1, kappa)
heavy: B1 heavy with L238G, G239Y, Q297L, K398M
light: B1 light
For the molecule B8, the “KD fold (SG1 = 1)” value in test [1] stood at 0.03 fold; in test [2], 32.9 fold; in test [3] it was 0.7 fold; in [4], 0.05 fold; in [5] it was 4 fold; in test [6], 2 fold. The “KD fold (SG1 = 1)” value was 7.7 fold in test [7] and 14.5 fold in test [8]. In [9], this molecule yielded an equilibrium dissociation constant (Kd) of 950 nM.

B9: M103205H795-MY309/M103202L889-SK1 (antibody, human IgG1, kappa)
heavy: B1 heavy with L238T, D270E, K398M
light: B1 light
Regarding B9, the “KD fold (SG1 = 1)” value in [1] is 0.19 fold; in test [2], 2.9 fold; in [3] it was 4.9 fold; in test [4], 0.3 fold; in test [5] it was 2.9 fold; in test [6], 2 fold. Also, the results for the “KD fold (SG1 = 1)” value in test [7] and in test [8] were 2.4 fold and 4.3 fold, respectively. The same molecule returned a Kd in test [9] of 140 nM.

B10: M103205H795-MY293/M103202L889-SK1 (antibody, human IgG1, kappa)
heavy: B1 heavy with L238G, G239Y, D270E, Q297L
light: B1 light
As to B10, the “KD fold (SG1 = 1)” value in test [1] is 0.02 fold; in [2], 30.7 fold; in [3] it was 0.5 fold; in [4], 0.05 fold; in test [5] it was 2.1 fold; in test [6] it was 1.5 fold. Besides, the “KD fold (SG1 = 1)” value in test [7] was found to be 4.4 fold; in [8], 15.1 fold. Also, the equilibrium dissociation constant (Kd) in test [9] came out at 1300 nM.
